According to article PMC6202814:

Assays:
[1] = substrate: O=C[C@@H](O)CO; assay: purified protein; conditions: donor DHAP 60 mM, 50 mM TEA pH 7.5, 25 °C, apparent
[2] = substrate: O=C(CO)CO; assay: purified protein; conditions: acceptor varied 2-80 mM, donor DHAP 60 mM, 50 mM TEA pH 7.5, 25 °C, apparent

B1: L-fuculose-1-phosphate aldolase (FucA) (Escherichia coli K-12) (protein)
chain: MERNKLARQIIDTCLEMTRLGLNQGTAGNVSVRYQDGMLITPTGIPYEKLTESHIVFIDGNGKHEEGKLPSSEWRFHMAAYQSRPDANAVVHNHAVHCTAVSILNRSIPAIHYMIAAAGGNSIPCAPYATFGTRELSEHVALALKNRKATLLQHHGLIACEVNLEKALWLAHEVEVLAQLYLTTLAITDPVPVLSDEEIAVVLEKFKTYGLRIEE
Km ([1]; acceptor varied 0.5-60 mM): 54.1 ± 3.6 mM | Vmax ([1]; acceptor varied 0.5-60 mM): 1.5 µmol/min/mg | kcat ([1]; acceptor varied 0.5-60 mM): 5 s⁻¹ | kcat/Km ([1]; acceptor varied 0.5-60 mM): 92 M⁻¹ s⁻¹

B2: L-rhamnulose-1-phosphate aldolase (RhaD) (Escherichia coli K-12) (protein)
chain: MQNITQSWFVQGMIKATTDAWLKGWDERNGGNLTLRLDDADIAPYHDNFHQQPRYIPLSQPMPLLANTPFIVTGSGKFFRNVQLDPAANLGIVKVDSDGAGYHILWGLTNEAVPTSELPAHFLSHCERIKATNGKDRVIMHCHATNLIALTYVLENDTAVFTRQLWEGSTECLVVFPDGVGILPWMVPGTDEIGQATAQEMQKHSLVLWPFHGVFGSGPTLDETFGLIDTAEKSAQVLVKVYSMGGMKQTISREELIALGKRFGVTPLASALAL
Km [2]: 23.4 ± 9.69 mM | Vmax [2]: 0.86 µmol/min/mg | kcat [2]: 4.1 s⁻¹ | kcat/Km [2]: 180 M⁻¹ s⁻¹ | Km ([1]; acceptor varied 0.2-60 mM): 40.8 ± 5.8 mM | Vmax ([1]; acceptor varied 0.2-60 mM): 4.3 µmol/min/mg | kcat ([1]; acceptor varied 0.2-60 mM): 20.5 s⁻¹ | kcat/Km ([1]; acceptor varied 0.2-60 mM): 500 M⁻¹ s⁻¹
